{
  "source": "patent US20210246451",
  "about": "“APTAMER FOR ADAMTS5 AND USE FOR APTAMER FOR ADAMTS5” (RIBOMIC INC., published 2021)",
  "biological_target": "T1, ADAMTS5 (UniProt Q9UNA0 Q9UNA0:262-622)",
  "T1 sequence": "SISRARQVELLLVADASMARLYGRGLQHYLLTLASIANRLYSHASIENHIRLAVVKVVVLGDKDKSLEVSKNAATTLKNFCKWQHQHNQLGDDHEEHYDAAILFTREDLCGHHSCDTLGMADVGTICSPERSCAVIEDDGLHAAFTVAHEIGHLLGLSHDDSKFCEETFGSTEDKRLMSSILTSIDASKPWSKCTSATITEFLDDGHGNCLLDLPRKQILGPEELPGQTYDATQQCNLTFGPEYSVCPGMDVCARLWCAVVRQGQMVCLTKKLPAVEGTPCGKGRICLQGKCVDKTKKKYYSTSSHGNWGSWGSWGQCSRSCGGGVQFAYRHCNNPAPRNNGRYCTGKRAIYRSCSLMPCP",
  "assay": "inhibition; method 2 ELISA; method 1 92.9%",
  "settings": "tags: R&D Systems",
  "description": "The heat-treated reaction solution was electrophoresed by 7.5% SDS-PAGE and stained with SYPRO Orange (manufactured by Sigma-Aldrich). The staining was performed according to the manual of Sigma-Aldrich and detected using STORM840 manufactured by GE Healthcare. […] The amount of uncleaved substrate in each reaction solution was quantified from the band intensity and the standard curve. The substrate cleavage efficiency of ADAMTS5 under these reaction conditions was 80-100%. The inhibition rate of the test substance was calculated using the following equation.\nOn the other hand, the aptamers having the sequences shown by the sequences of SEQ ID NOs: 11(34)-11(35) and SEQ ID NO: 15 were evaluated by the following method (evaluation method 2). […] The cleaved substrate was quantified by a sandwich ELISA method using two kinds of anti-aggrecan antibodies. […] Using this, the amount of cleaved substrate can be quantified. […] The inhibition rate of the test substance was calculated using the following equation.\nThe aptamers having the sequences shown in SEQ ID NOs: 28(l)-28(18) (SEQ ID NO: 28 lineage) and SEQ ID NOs: 29(1)-29(3) (SEQ ID NO: 29 lineage) were all produced by chemical synthesis. Whether these aptamers inhibit the enzyme activity of ADAMTS5 was evaluated by a method similar to that in Example 1 and Example 5.",
  "data": [
    {"binder": "CGUAGGGGCCUCCACAGCAUUCGCUUGGACACAAACCACG (ssRNA, as SEQ 29 plus 2'-OMe at A31; 3' idT)", "note": "[29(1)]", "values": [
      {"measurement": "IC50", "value": 0.17, "unit": "nM"}
    ]}
  ]
}
